Assay results as given in patent publication US20250346644A1 (LATTICON SUZHOU BIOPHARMACEUTICALS, published 2025).

T1: hIL2Rβ (hCD122) (human, UniProt P14784 27-239, limits assumed)
T1 construct: bought recombinant protein; also called hCD122 (Acro)
T1 sequence (looked up): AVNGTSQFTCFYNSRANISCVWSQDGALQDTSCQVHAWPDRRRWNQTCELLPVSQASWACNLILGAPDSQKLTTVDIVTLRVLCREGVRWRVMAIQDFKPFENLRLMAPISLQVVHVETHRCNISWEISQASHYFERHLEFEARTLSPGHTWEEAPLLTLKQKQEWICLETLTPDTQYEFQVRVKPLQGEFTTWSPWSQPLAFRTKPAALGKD


The binders below were run against T2, hIL2-DM-his (human, UniProt P60568 21-153) (assay: BLI ForteBio, Ab on Protein A sensor).
T2 construct: expressed in ExpiCHO-S cells, nickel-column purified; also called hIL-2 mutein containing two point mutations K64G and N90R (with a his-tag); not shown: his-tag

Binder	Binding Response (nm)	Kd	koff	kon	binding result
hS4B6-H6K3-hu11 (antibody, V domains shown, H6K3 with light chain R66G) VH: QVQLVQSGAEVKKPGATVKISCKVSGDTITAYYLHWVRQAPGQGLEWIGRIDPEDDSTKYAENFKNRVTITADTSTNTAYMELSSLRSEDTAVYYCTTVTFYYSRELRWFAYWGQGTLVTVSS VL: DIVLTQSPATLSLSPGERATLSCQASQDIGNYLSWYQQKPGQAPRLLIYSATSLADGIPARFSGSGSGTDYTLTISSLEPEDFAVYYCLQHYSTPYTFGQGTKLEIK					no binding (tested: 100 nM (highest antigen concentration))
hS4B6-H6K3-hu02 (antibody, V domains shown, H6K3 with heavy chain I29F) VH: QVQLVQSGAEVKKPGATVKISCKVSGDTFTAYYLHWVRQAPGQGLEWIGRIDPEDDSTKYAENFKNRVTITADTSTNTAYMELSSLRSEDTAVYYCTTVTFYYSRELRWFAYWGQGTLVTVSS VL: DIVLTQSPATLSLSPGERATLSCQASQDIGNYLSWYQQKPGQAPRLLIYSATSLADGIPARFSGSRSGTDYTLTISSLEPEDFAVYYCLQHYSTPYTFGQGTKLEIK					no binding (tested: 100 nM (highest antigen concentration))
hS4B6-H6K3-hu03 (antibody, V domains shown, H6K3 with heavy chain A31D) VH: QVQLVQSGAEVKKPGATVKISCKVSGDTITDYYLHWVRQAPGQGLEWIGRIDPEDDSTKYAENFKNRVTITADTSTNTAYMELSSLRSEDTAVYYCTTVTFYYSRELRWFAYWGQGTLVTVSS VL: DIVLTQSPATLSLSPGERATLSCQASQDIGNYLSWYQQKPGQAPRLLIYSATSLADGIPARFSGSRSGTDYTLTISSLEPEDFAVYYCLQHYSTPYTFGQGTKLEIK					no binding (tested: 100 nM (highest antigen concentration))

The next lines start with results.

Binding Response (nm)	Kd	koff	kon	Binder	binding result
0.135 nm	52.5 nM	0.0192 s⁻¹	365000 M⁻¹ s⁻¹	hS4B6-H6K3-hu06 (antibody, V domains shown, H6K3 with heavy chain N65S) VH: QVQLVQSGAEVKKPGATVKISCKVSGDTITAYYLHWVRQAPGQGLEWIGRIDPEDDSTKYAENFKSRVTITADTSTNTAYMELSSLRSEDTAVYYCTTVTFYYSRELRWFAYWGQGTLVTVSS VL: DIVLTQSPATLSLSPGERATLSCQASQDIGNYLSWYQQKPGQAPRLLIYSATSLADGIPARFSGSRSGTDYTLTISSLEPEDFAVYYCLQHYSTPYTFGQGTKLEIK	
0.152 nm	32.3 nM	0.0174 s⁻¹	537000 M⁻¹ s⁻¹	hS4B6-H6K3-hu12 (antibody, V domains shown, H6K3 with light chain Y71F) VH: QVQLVQSGAEVKKPGATVKISCKVSGDTITAYYLHWVRQAPGQGLEWIGRIDPEDDSTKYAENFKNRVTITADTSTNTAYMELSSLRSEDTAVYYCTTVTFYYSRELRWFAYWGQGTLVTVSS VL: DIVLTQSPATLSLSPGERATLSCQASQDIGNYLSWYQQKPGQAPRLLIYSATSLADGIPARFSGSRSGTDFTLTISSLEPEDFAVYYCLQHYSTPYTFGQGTKLEIK	
0.18 nm	23.6 nM	0.00867 s⁻¹	367000 M⁻¹ s⁻¹	hS4B6-H6K3-hu09 (antibody, V domains shown, H6K3 with light chain D56S) VH: QVQLVQSGAEVKKPGATVKISCKVSGDTITAYYLHWVRQAPGQGLEWIGRIDPEDDSTKYAENFKNRVTITADTSTNTAYMELSSLRSEDTAVYYCTTVTFYYSRELRWFAYWGQGTLVTVSS VL: DIVLTQSPATLSLSPGERATLSCQASQDIGNYLSWYQQKPGQAPRLLIYSATSLASGIPARFSGSRSGTDYTLTISSLEPEDFAVYYCLQHYSTPYTFGQGTKLEIK	
0.172 nm	28.3 nM	0.0106 s⁻¹	372000 M⁻¹ s⁻¹	hS4B6-H6K3-hu10 (antibody, V domains shown, H6K3 with light chain D56T) VH: QVQLVQSGAEVKKPGATVKISCKVSGDTITAYYLHWVRQAPGQGLEWIGRIDPEDDSTKYAENFKNRVTITADTSTNTAYMELSSLRSEDTAVYYCTTVTFYYSRELRWFAYWGQGTLVTVSS VL: DIVLTQSPATLSLSPGERATLSCQASQDIGNYLSWYQQKPGQAPRLLIYSATSLATGIPARFSGSRSGTDYTLTISSLEPEDFAVYYCLQHYSTPYTFGQGTKLEIK	
0.13 nm	45.3 nM	0.0181 s⁻¹	400000 M⁻¹ s⁻¹	hS4B6-H6K3-hu07 (antibody, V domains shown, H6K3 with heavy chain N65G) VH: QVQLVQSGAEVKKPGATVKISCKVSGDTITAYYLHWVRQAPGQGLEWIGRIDPEDDSTKYAENFKGRVTITADTSTNTAYMELSSLRSEDTAVYYCTTVTFYYSRELRWFAYWGQGTLVTVSS VL: DIVLTQSPATLSLSPGERATLSCQASQDIGNYLSWYQQKPGQAPRLLIYSATSLADGIPARFSGSRSGTDYTLTISSLEPEDFAVYYCLQHYSTPYTFGQGTKLEIK	
0.139 nm	39.4 nM	0.0152 s⁻¹	387000 M⁻¹ s⁻¹	hS4B6-H6K3-hu05 (antibody, V domains shown, H6K3 with heavy chain I48M) VH: QVQLVQSGAEVKKPGATVKISCKVSGDTITAYYLHWVRQAPGQGLEWMGRIDPEDDSTKYAENFKNRVTITADTSTNTAYMELSSLRSEDTAVYYCTTVTFYYSRELRWFAYWGQGTLVTVSS VL: DIVLTQSPATLSLSPGERATLSCQASQDIGNYLSWYQQKPGQAPRLLIYSATSLADGIPARFSGSRSGTDYTLTISSLEPEDFAVYYCLQHYSTPYTFGQGTKLEIK	
0.127 nm	58.1 nM	0.0207 s⁻¹	356000 M⁻¹ s⁻¹	hS4B6-H6K3-hu08 (antibody, V domains shown, H6K3 with heavy chain N76D; also called H6K3-huis) VH: QVQLVQSGAEVKKPGATVKISCKVSGDTITAYYLHWVRQAPGQGLEWIGRIDPEDDSTKYAENFKNRVTITADTSTDTAYMELSSLRSEDTAVYYCTTVTFYYSRELRWFAYWGQGTLVTVSS VL: DIVLTQSPATLSLSPGERATLSCQASQDIGNYLSWYQQKPGQAPRLLIYSATSLADGIPARFSGSRSGTDYTLTISSLEPEDFAVYYCLQHYSTPYTFGQGTKLEIK	
0.143 nm	34.6 nM	0.0149 s⁻¹	430000 M⁻¹ s⁻¹	hS4B6-H6K3-hu04 (antibody, V domains shown, H6K3 with heavy chain L34M) VH: QVQLVQSGAEVKKPGATVKISCKVSGDTITAYYMHWVRQAPGQGLEWIGRIDPEDDSTKYAENFKNRVTITADTSTNTAYMELSSLRSEDTAVYYCTTVTFYYSRELRWFAYWGQGTLVTVSS VL: DIVLTQSPATLSLSPGERATLSCQASQDIGNYLSWYQQKPGQAPRLLIYSATSLADGIPARFSGSRSGTDYTLTISSLEPEDFAVYYCLQHYSTPYTFGQGTKLEIK	

What follows are binders tested against T1, hIL2Rβ (hCD122) (assay: ELISA (method of section 2.1.1): sample captured on coated goat anti-human IgG, hCD122 titrated; the x axis is the CD122 concentration).
Protocol: ELISA was performed as follows: a goat anti-human IgG (Jackson Immunoresearch) was diluted to 1 μg/mL in 1×PBS and added to an ELISA plate at 100 μL/well, and then incubated at 4° C. overnight. The plate was washed with PBS and then blocked at room temperature for 1 hour after adding the blocking solution (PBST containing 1% BSA) to each well. […] The plate was washed with PBST; the HRP-labeled anti-6×His-tag secondary antibody (Proteintech) diluted at a ratio of 1:10,000 in blocking solution was then added to each well and incubated at room temperature for 1 hour. The plate was washed with PBST; the TMB chromogenic solution (Thermo) was added to each well and incubated in dark for 3-10 minutes at room temperature. The stop solution (2 M HCl) was added to each well, and OD values at a wavelength of 450-570 nm were read using a multimode microplate reader (Varioskan, Thermo).

binding result	Binder
binds	IC-Cy08-DE (other, IC-Cy08 with light chain D1E; also called H6K3(H)-Cy-08-DE) heavy: APTSSSTKKTQLQLEHLLLDLQMILNGINNYKNPKLTRMLTFKFYMPKKATELKHLQCLEEELGCLEEVLNLAQSKNFHLRPRDLISNIRVIVLELKGSETTFMCEYADETATIVEFLNRWITFCQSIISTLTGGGGSGGGGSGGGGSGGGGSQVQLVQSGAEVKKPGATVKISCKVSGDTITAYYMHWVRQAPGQGLEWIGRIDPEDDSTKYAENFKGRVTITADTSTDTAYMELSSLRSEDTAVYYCTTVTCYYSRELRWFAYWGQGTLVTVSS VL: EIVLTQSPATLSLSPGERATLSCQASQDIGNYLSWYQQKPGQAPRLLIYSATSLASGIPARFSGSRSGTDFTLTISSLEPEDFAVYYCLQHYSTPYTFGQGTKLEIK
binds	IC-Cy08-QG (other, IC-Cy08 with light chain Q27G; also called H6K3(H)-Cy-08-QG) heavy: APTSSSTKKTQLQLEHLLLDLQMILNGINNYKNPKLTRMLTFKFYMPKKATELKHLQCLEEELGCLEEVLNLAQSKNFHLRPRDLISNIRVIVLELKGSETTFMCEYADETATIVEFLNRWITFCQSIISTLTGGGGSGGGGSGGGGSGGGGSQVQLVQSGAEVKKPGATVKISCKVSGDTITAYYMHWVRQAPGQGLEWIGRIDPEDDSTKYAENFKGRVTITADTSTDTAYMELSSLRSEDTAVYYCTTVTCYYSRELRWFAYWGQGTLVTVSS VL: DIVLTQSPATLSLSPGERATLSCQASGDIGNYLSWYQQKPGQAPRLLIYSATSLASGIPARFSGSRSGTDFTLTISSLEPEDFAVYYCLQHYSTPYTFGQGTKLEIK
binds	IC-Cy08-QD (other, IC-Cy08 with light chain Q27D; also called H6K3(H)-Cy-08-QD) heavy: APTSSSTKKTQLQLEHLLLDLQMILNGINNYKNPKLTRMLTFKFYMPKKATELKHLQCLEEELGCLEEVLNLAQSKNFHLRPRDLISNIRVIVLELKGSETTFMCEYADETATIVEFLNRWITFCQSIISTLTGGGGSGGGGSGGGGSGGGGSQVQLVQSGAEVKKPGATVKISCKVSGDTITAYYMHWVRQAPGQGLEWIGRIDPEDDSTKYAENFKGRVTITADTSTDTAYMELSSLRSEDTAVYYCTTVTCYYSRELRWFAYWGQGTLVTVSS VL: DIVLTQSPATLSLSPGERATLSCQASDDIGNYLSWYQQKPGQAPRLLIYSATSLASGIPARFSGSRSGTDFTLTISSLEPEDFAVYYCLQHYSTPYTFGQGTKLEIK
binds	IC-Cy08-QE (other, IC-Cy08 with light chain Q27E; also called H6K3(H)-Cy-08-QE) heavy: APTSSSTKKTQLQLEHLLLDLQMILNGINNYKNPKLTRMLTFKFYMPKKATELKHLQCLEEELGCLEEVLNLAQSKNFHLRPRDLISNIRVIVLELKGSETTFMCEYADETATIVEFLNRWITFCQSIISTLTGGGGSGGGGSGGGGSGGGGSQVQLVQSGAEVKKPGATVKISCKVSGDTITAYYMHWVRQAPGQGLEWIGRIDPEDDSTKYAENFKGRVTITADTSTDTAYMELSSLRSEDTAVYYCTTVTCYYSRELRWFAYWGQGTLVTVSS VL: DIVLTQSPATLSLSPGERATLSCQASEDIGNYLSWYQQKPGQAPRLLIYSATSLASGIPARFSGSRSGTDFTLTISSLEPEDFAVYYCLQHYSTPYTFGQGTKLEIK
binds	IC-Cy08-QK (other, IC-Cy08 with light chain Q27K; also called H6K3(H)-Cy-08-QK; C-Cy8-QK) heavy: APTSSSTKKTQLQLEHLLLDLQMILNGINNYKNPKLTRMLTFKFYMPKKATELKHLQCLEEELGCLEEVLNLAQSKNFHLRPRDLISNIRVIVLELKGSETTFMCEYADETATIVEFLNRWITFCQSIISTLTGGGGSGGGGSGGGGSGGGGSQVQLVQSGAEVKKPGATVKISCKVSGDTITAYYMHWVRQAPGQGLEWIGRIDPEDDSTKYAENFKGRVTITADTSTDTAYMELSSLRSEDTAVYYCTTVTCYYSRELRWFAYWGQGTLVTVSS VL: DIVLTQSPATLSLSPGERATLSCQASKDIGNYLSWYQQKPGQAPRLLIYSATSLASGIPARFSGSRSGTDFTLTISSLEPEDFAVYYCLQHYSTPYTFGQGTKLEIK
